{"source": "a protein production outcome set (Wang et al. 2014)"}
{"test": "label from the status in PepcDB records"}
{"sequence": "MERRGELHRVRVPVSAELEIAEIADRVVKAGGPALLFERVVGKDFPVAIGLFGTRARTAFALGVEDLDELARKVEALLALEPGKGGLSALLGLLPKLPLLRGFFPRRVRRAPVQEVVWRGEEVDLRRLPVLKCWPLDGGPFLTLPLVITKDPETGELNLGMYRMQVLDPRSTAMHWQWHKVGRRHLEKAKRLGRRLEVAVALGGDPVLTYAATAPLPPLPGVSEFHLAGFLRGAPIELARGVTVDLPVPAEAEFVLEGYIDPEEPLVEEGPFGDHTGFYTPVDLYPRFHVTAVTHRKGAIYPATLVGVPPMEDAYLIEATERLFLPALRLVLPEVVDYHMPPEGVAHNWVNVSLRKAYPGQAYKVAYGMLGLGQMMFAKVIVAVDADVPVKPGFAALLEALKHALPGRDTLLLRGPVDVLDHSSRAFAFGGKLVIDGTRKLPEEGGEAPFVPKAHPGLPEDPEVLDQRQWPGLWGAVLAKRRPHQAWEVAERLLRAPQSAGIRLLLLADEDTALSPEELLWYVLNNVDPERDARVMPGVEGPVLVLDGTRKLPEEGFPRVWPERIRMDPKVKALVEARWAEYGLGWTTVGE", "protein production": "failed"}
{"sequence": "MERRLGVRAWVKENRGSFQPPVCNKLMHQEQLKVMFIGGPNTRKDYHIEEGEEVFYQLEGDMVLRVLEQGKHRDVVIRQGEIFLLPARVPHSPQRFANTVGLVVERRRLETELDGLRYYVGDTMDVLFEKWFYCKDLGTQLAPIIQEFFSSEQYRTGKPIPDQLLKEPPFPLSTRSIMEPMSLDAWLDSHHRELQAGTPLSLFGDTYETQVIAYGQGSSEGLRQNVDVWLWQLEGSSVVTMGGRRLSLAPDDSLLVLAGTSYAWERTQGSVALSVTQDPACKKPLG", "protein production": "failed"}
{"sequence": "MERSALVTGGASGLGRAAALALKARGYRVVVLDLRREGEDLIYVEGDVTREEDVRRAVARAQEEAPLFAVVSAAGVGLAEKILGKEGPHGLESFRRVLEVNLLGTFNVLRLAAWAMRENPPDAEGQRGVIVNTASVAAFEGQIGQAAYAASKGGVVALTLPAARELAGWGIRVVTVAPGLFDTPLLQGLPEKAKASLAAQVPFPPRLGRPEEYAALVLHILENPMLNGEVVRLDGALRMAPR", "protein production": "not failed"}
{"sequence": "MESEGEAQMFADCDQKTVKQTAAKPMSSKKKQDFQALASDRQLAIVFSSMIQVSEAFDYGIGNPEYFVRISMTEEEADIAKENLESIKLENKSLKKQNSEAVALLQKTRNQDMSRIEIQQLTENRAGFFETADSMIKLINQVTPKNAKKTRQQLDQLKKQYTQYSAESIKIMNSIVKKQKADKASFERHLEALLQKQPGQQVRSELYLEHHHHHH", "protein production": "not failed"}
{"sequence": "MESFSSKSLALQAEKKLLSKMAGRSVAHLFIDETSSEVLDELYRVSKEYTHSRPQAQRVIKDLIKVAIKVAVLHRNGSFGPSELALATRFRQKLRQGAMTALSFGEVDFTFEAAVLAGLLTECRDVLLELVEHHLTPKSHGRIRHVFDHFSDPGLLTALYGPDFTQHLGKICDGLRKLLDEGKL", "protein production": "failed"}
{"sequence": "MESIEQQLTELRTTLRHHEYLYHVMDAPEIPDAEYDRLMRELRELETKHPELITPDSPTQRVGAAPLAAFSQIRHEVPMLSLDNVFDEESFLAFNKRVQDRLKNNEKVTWCCELKLDGLAVSILYENGVLVSAATRGDGTTGEDITSNVRTIRAIPLKLHGENIPARLEVRGEVFLPQAGFEKINEDARRTGGKVFANPRNAAAGSLRQLDPRITAKRPLTFFCYGVGVLEGGELPDTHLGRLLQFKKWGLPVSDRVTLCESAEEVLAFYHKVEEDRPTLGFDIDGVVIKVNSLAQQEQLGFVARAPRWAVAFKFPAQEQMTFVRDVEFQVGRTGAITPVARLEPVHVAGVLVSNATLHNADEIERLGLRIGDKVVIRRAGDVIPQVVNVVLSERPEDTREVVFPTHCPVCGSDVERVEGEAVARCTGGLICGAQRKESLKHFVSRRAMDVDGMGDKIIDQLVEKEYVHTPADLFKLTAGKLTGLERMGPKSAQNVVNALEKAKETTFARFLYALGIREVGEATAAGLAAYFGTLEALEAASIEELQKVPDVGIVVASHVHNFFAEESNRNVISELLAEGVHWPAPIVINAEEIDSPFAGKTVVLTGSLSQMSRDDAKARLVELGAKVAGSVSKKTDLVIAGEAAGSKLAKAQELGIEVIDEAEMLRLLGS", "protein production": "not failed"}
{"sequence": "MESITLDIELLQLPETSPMSMKSNQDFVKKLFDQWLALPETNRLVTSLVNDAKAGVALNVMCGGGSSGTNSGSNSPLASMFPARNGPPLSPRNSTGSPRIARQRTGLSNLSSPLKVVSDHVKELIPQFYFEDGRPPPNDLKEQCIAKINSLFYGHEDGLQLQEFKLVTTEICKVPSFFSTSIFKKVDTNNTGFVKREDFIDYWVKGNMLTKEITSQVFTILKQPDHNYLVQDDFKPVLQELLATHPGLEFLQGTPEFQDRYAETVIYRIYYYINRSGNGHLTLRELKRGNLVDAMQHADEEEDINKVLRYFSYEHFYVIYCKFWELDTDHDFLIDKENLIRYSNHALTYRIVDRIFSQVPRKFTSKTEGKMGYEDFVYFILAEEDKSSEPSLEYWFKCIDLDANGVLTRNELQFFYEEQLHRMECMAQEAVLFEDILCQLFDMVKPEDEGFICLNDLKGSKLSGNVFNILFNLNKFMAFETRDPFLIRQERANPTWTEWDRFAHREYIRLSMEEDVEDASNGSAEAWDDSLEVPF", "protein production": "failed"}
{"sequence": "MESLIGLVNRIQRACTVLGDYGGGTGSNAFNSLWEALPTVAVVGGQSSGKSSVLESIVGRDFLPRGSGIVTRRPLVLQLHKTDDGTEEYAEFLHLPKKQFTDFALVRREIQDETDRITGKNKQISPVPIHLSIYSPNVVNLTLIDLPGLTKVAVEGQPETIAEDIESMVRTYVDKPNCIILAISPANQDIATSDAIKLAKDVDPTGERTFGVLTKLDLMDKGTNALEVLEGRSYRLQHPWVGIVNRSQADINKNVDMMLARRKEREYFDTSPDYGHLASKMGSEYLAKLLSKHLESVIRTRIPSILSLINKSIEELERELDRMGRPVAVDAGAQLYTILEMCRAFDKIFKEHLDGGRPGGDRIYGVFDNQLPAALKKLPFDRHLSLQSVKKIVSEADGYQPHLIAPEQGYRRLIEGALGYFRGPAEASVDAVHYVLKELVRKSISETEELKRFPSLQVELAAAANSSLEKFREESKKSVIRLVDMESAYLTAEFFRKLPQEIERPVTNSKNQTASPSSATLDQYGDGHFRRIASNVSAYVNMVSDTLRNTIPKACVYCQVRQAKLALLNYFYSQISKREGKQLGQLLDEDPALMDRRLECAKRLELYKKARDEIDAVAWVR", "protein production": "failed"}
{"sequence": "MESLLRADQTLIPGAMCSRRVWTHSELALPSVSVTELDLVRGLLQALQGLSSPFLFWDQTGQTFRAKSHIRVSHLSHSSLHVLLAGFLYPATCLKLVESIVAAINTSLRSPPTLMAFSDSVSAWLEANIALKEEVMIDNSDITVTPTLLGLTSAEYLLQVVHGAIPHTFFDSNSTISAAEIAVHVLDYLYKKLDEVCLVQGGEVEGFHMLLQMFAGSLLPYIEGLDSWLFEGTLDDPCEELFFTANQSVSVDDAEFWEKSYQLMKVPNSKSNVTSLNEKKVMSGHDANSSLASDKDKEQNTRVLCPLFIKDICKSIVSAGKSLQLMQHIPSTSSENSGKTQFHGRNGYGKSSVGSLLTKMSSCSSTADLSLSEVFCLTLAGLIGHGDHVSRYLWKDEADEWEISPTLASYISGELVNDMDNKDLPVLTCSERMWYKLLVGAVQEKRAMEAKSELQSACYATGVKDGNSGLTAQKALQGLFCNENLVVSVSKMDLERNRNAWNVLNLSQNYCLPSLNDESLLSAVFEESGMADAGLSGTNYKFGFQFGRSEYISSQDDTNLLETLFPFPTLLPSFQAEPMDTRLPVVIMQECFTIYIRRQVDYIGKVILSKLMNDWKLMHELAVLRAIYLLGSGDLLQHFLTVIFDRLGKGESSNDDFELNIILQESIRNSADAMLLSSPDSLVVSISREDRDKDDKGDIIPLSSTRKSRVNSFGIDCLESLKFTYKVPWPLELIANSEAIKKYNQVKRAKYVLDKARRWMWKGKGSATKIRKHHWLLEQKLLNFVDAFHQYVMDRVYHTAWRELCEAMVKAGSLDEVIYVHETYLLSIQRQCFVVQEKLWAIIASRINMILGLALEFYSIQQTLSSGGAVSAIKARCEMEIDRIEKQFEDCIAFLLRVLSSKLNVGHFPHLADLVTRINYNYHYMSDTGSLMTTSGAETNSSRPWTAKSDV", "protein production": "failed"}
{"sequence": "MESPHAADPEGIDPQVVELATTIFALARAGDTASLDAYIRAGVPANLTNDQGDTLVMLAAYYGHADTVECLCRHGADVNRLNDRGQSPLAGAVFKDEDAVVKTLLAHGADPTLGQPSAIDTARMFGKEHYLELFDNA", "protein production": "failed"}
{"sequence": "MESPTQTSEHIESMTEFLVKHYPDQLREISLSSDPKLHYPLFIEYAELVDDNPSLARQVFSDPEHYLRQFDDSAILAHKIALEHMKKFEEKIGIEKRFIHVRINTSGSPLERSPETFPSIGRVRVKHRGILMMLKGTVIRSGAVKMYEGEKMYRCRKCKHMFPIFPELESINSIVKPPFCPSQRSKACEGTNFDPVDDTVTRHDYQEIKIQENTQVLGVGVIPRSILVVLKDDLVDNVKAGDDVVVSGILTSKWSHDLKDVRCDLEPMLIANHVRRTNELKSEIDISDDLIEKFKNFWSHFRDTPLKGRNAILRGICPQVFGLFTVKLAVALTLIGGVQHVDASGTKVRGESHLLLIGDPGTGKSQFLKFAAKLSNRAVITTGLGSTSAGLTVTAVKDGGEWMLEAGALVLADGGLCCIDEFDSMREHDRATIHEAMEQQSISVAKAGLVTTLSTKTIVFGATNPKGQYDPDQYTKNPEWDAVVSSHILAEVQIEQDREVDDLTTIWPLPMLQRYIQFVKKNFRPVLSKEAEEIISSYYRLQRRSSTHNAARTTVRMLESLIRLAQGTSSVIVFINQNTPKTGTKERILMVLWCHAAHARLMFRNEVTRLDAITAILCIESSMTISAIVDSMGNALHSNFSEEPDQECILFRH", "protein production": "failed"}
{"sequence": "MESQLTLITLTLVIATIFGVALSRFRISPIPAYLIAGLLGKSFGLDYSSDLFNFLSTLAINLVSFNVGISLDIRELKNILSKATIIAITEYIVGFTIISIISLIIGLPFYDTFILTIISVTTSTTITYKLIQNKIDDKQSGLILAVLSLEDVITFIALGVILSSNSNIVEIIPTSLASLGLGYLVSRTIINRSINTSEESVIISSIASVLSFSLLGQIFDIPSTLANFLLGLGASYALKDTKKVSRILSPLIDFSLIFFFFSAGSYLNLSLSSLYVLVPISLIMTLVKYLSFSTSYWLTGSNFLVAFRSGIYMTSLSELGIIVALNAFQQGIITSLVYNLSAFLVMMSSTITSITVPRERRIIGLISKTYEKLRIDRIDGALQRITRVVKLNRNTTSNFILRFILIGLITIFSASYLLIFLVSFARFFIYIAPLISVLVPFLLALLVIEETRRLSNLGQKRINEIILWIIYVFITINFEIFIVRIISELNYYVIYLGILVSIIVIVIMYQRLNTFIKELDKSL", "protein production": "failed"}
{"sequence": "MESSKKMDSPGALQTNPPLKLHTDRSAGTPVFVPEQGGYKEKFVKTVEDKYKCEKCHLVLCSPKQTECGHRFCESCMAALLSSSSPKCTACQESIVKDKVFKDNCCKREILALQIYCRNESRGCAEQLTLGHLLVHLKNDCHFEELPCVRPDCKEKVLRKDLRDHVEKACKYREATCSHCKSQVPMIALQVSLLQNESVEKNKSIQSLHNQICSFEIEIERQKEMLRNNESKILHLQRVIDSQAEKLKELDKEIRPFRQNWEEADSMKSSVESLQNRVTELESVDKSAGQVARNTGLLESQLSRHDQMLSVHDIRLADMDLRFQVLETASYNGVLIWKIRDYNRRKQEAVMGKTLSLYSQPFYTGYFGYKMCARVYLNGDGMGKGTHLSLFFVIMRGEYDALLPWPFKQKVTLMLMDQGSSRRHLGDAFKPDPNSSSFKKPTGEMNIASGCPVFVAQTVLENGTYIKDDTIFIKVIVDTSDLPDP", "protein production": "not failed"}
{"sequence": "MESTKSNDIPILRNVSDSFSDHYGKYLQRCGIFVPKDGDSSGPDAYVVFHNGQTRYVVAFSFTFYHKTEFSKRDIEKEAEQFFQEVISVLNDGSPSSVQLCFQFVVVCTRYDRSVVFSSEEQNIVEDASYLVTEHSAGSTLNESRRSCLQLVVVSQRNLERFLGRENFDILRKIGKASREEFRKDFSVWCKTVFESMSDEYVSPLEAKPFNVTLRVARNIRPRTNEENRMQMEGFQTAMQVEEGNTRGEQRVAASSSLSSSFDWNTFLREYCGLSEEDVAYCLPKVEDIDMDELPAVTKEILRDLGIDKPALRLKIRSSIRSYLANER", "protein production": "failed"}
